Key:
[1] = molecular target: T1, human IL-33 (human, Biotinylated in Example 2; the site is not stated.); assay: cell-based or functional assay
T1 chain: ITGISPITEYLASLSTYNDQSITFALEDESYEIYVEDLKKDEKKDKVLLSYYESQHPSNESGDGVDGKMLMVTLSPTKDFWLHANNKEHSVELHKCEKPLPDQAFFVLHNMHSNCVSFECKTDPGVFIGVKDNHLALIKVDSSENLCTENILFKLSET

[2] = molecular target: T2, human recombinant neonatal receptor (FcRn) (human, UniProt P55899 24-297; P61769 21-119); assay: SPR (ProteOn XPR36), antibody captured by protein L, FcRn as analyte, equilibrium fit, pH 6.0, 25 C
T2 construct: also called human FcRn; human recombinant soluble FcRn

[3] = molecular target: T3, cynomolgus recombinant neonatal receptor (FcRn) (cynomolgus monkey, UniProt Q8SPV9 24-297; Q8SPW0 21-119); assay: as above
T3 construct: extracellular domain; beta-2-microglobulin is not mentioned; also called cyno FcRn; cynomolgus monkey FcRn

[4] = molecular target: T4, human complement component C1q (human, UniProt P02745 23-245; P02746 28-253; P02747 29-245); assay: SPR (ProteOn XPR36), antibody immobilised by amine coupling, C1q as analyte, equilibrium fit, 25 C
T4 construct: also called human recombinant soluble complement C1q; Sigma #C1740-5 mg

[5] = molecular target: T1, human IL-33; assay: cell-based or functional assay
[6] = molecular target: T1, human IL-33; assay: cell-based or functional assay
[7] = molecular target: T1, human IL-33; assay: cell-based or functional assay
[8] = molecular target: T5, cFcgRIIb (cynomolgus monkey); assay: SPR (ProteOn XPR36), anti-poly-histidine IgG surface, antibody as analyte, equilibrium fit, 25 C
T5 construct: extracellular domain

[9] = molecular target: T6, cFcgRIIa (cynomolgus monkey); assay: as above
T6 construct: extracellular domain; also called recombinant soluble cynomolgus monkey Fc gamma receptor IIa

[10] = molecular target: T7, cFcgRIIIa (cynomolgus monkey); assay: as above
T7 construct: extracellular domain
T7 sequence (Q8SPW2 17-208): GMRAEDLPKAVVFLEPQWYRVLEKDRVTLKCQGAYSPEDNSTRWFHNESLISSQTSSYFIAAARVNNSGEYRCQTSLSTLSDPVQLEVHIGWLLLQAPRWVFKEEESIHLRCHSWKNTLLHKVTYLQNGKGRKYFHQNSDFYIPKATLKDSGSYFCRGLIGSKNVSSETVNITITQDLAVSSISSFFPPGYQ

T3 sequence (Q8SPV9 24-297 limits assumed, chain 1 of 2): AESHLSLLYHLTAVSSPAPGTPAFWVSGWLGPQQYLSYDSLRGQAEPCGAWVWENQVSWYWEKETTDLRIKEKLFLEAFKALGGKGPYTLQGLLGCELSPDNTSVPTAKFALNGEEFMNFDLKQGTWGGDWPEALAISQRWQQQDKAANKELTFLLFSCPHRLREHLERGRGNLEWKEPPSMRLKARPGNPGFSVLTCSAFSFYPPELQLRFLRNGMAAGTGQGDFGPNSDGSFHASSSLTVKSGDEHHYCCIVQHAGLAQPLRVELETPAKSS
T3 sequence (Q8SPW0 21-119 limits assumed, chain 2 of 2): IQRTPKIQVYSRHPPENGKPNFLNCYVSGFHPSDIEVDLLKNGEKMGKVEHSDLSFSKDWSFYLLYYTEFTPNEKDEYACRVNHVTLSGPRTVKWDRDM
T4 sequence (P02745 23-245 limits assumed, chain 1 of 3): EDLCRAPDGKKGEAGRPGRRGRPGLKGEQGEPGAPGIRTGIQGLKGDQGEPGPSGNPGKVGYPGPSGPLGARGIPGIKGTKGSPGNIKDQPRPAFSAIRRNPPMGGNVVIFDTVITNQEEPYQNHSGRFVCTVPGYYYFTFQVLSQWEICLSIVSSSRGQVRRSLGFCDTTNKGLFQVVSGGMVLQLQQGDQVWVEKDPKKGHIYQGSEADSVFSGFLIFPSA
T4 sequence (P02746 28-253 limits assumed, chain 2 of 3): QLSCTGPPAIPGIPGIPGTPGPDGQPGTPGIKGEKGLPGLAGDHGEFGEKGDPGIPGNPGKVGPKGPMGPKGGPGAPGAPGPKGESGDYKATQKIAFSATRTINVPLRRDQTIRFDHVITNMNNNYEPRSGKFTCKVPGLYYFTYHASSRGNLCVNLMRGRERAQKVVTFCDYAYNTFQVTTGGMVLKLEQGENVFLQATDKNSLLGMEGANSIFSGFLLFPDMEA
T4 sequence (P02747 29-245 limits assumed, chain 3 of 3): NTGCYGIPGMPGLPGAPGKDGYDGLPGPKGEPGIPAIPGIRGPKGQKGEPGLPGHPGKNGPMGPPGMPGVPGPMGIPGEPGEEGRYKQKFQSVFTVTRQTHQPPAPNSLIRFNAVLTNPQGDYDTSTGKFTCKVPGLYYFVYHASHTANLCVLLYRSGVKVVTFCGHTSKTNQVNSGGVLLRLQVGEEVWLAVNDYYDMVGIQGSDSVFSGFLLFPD

pIC50, inhibition of 1 ng/mL human IL-33 induced IL-13 production, mouse bone marrow-derived mast cells [1]: 0.55 | pIC50, inhibition of 1 ng/mL human IL-33 induced IL-18 production, mouse bone marrow-derived mast cells [1]: 10.2 | pIC50, inhibition of 1 ng/mL human IL-33 induced TNF-α production, mouse bone marrow-derived mast cells [1]: 10.4 | Kd [2]: 25 nM | Kd [3]: 24.7 nM | Kd [4]: 213 nM | IC50, inhibition of 10 ng/mL human IL-33 induced IL-6 production, mouse bone marrow-derived mast cells [5]: ~0.566 nM | IC50, inhibition of 10 ng/mL human IL-33 induced IL-13 production, mouse bone marrow-derived mast cells [5]: ~0.567 nM | IC50, inhibition of 10 ng/mL human IL-33 induced IL-18 production, mouse bone marrow-derived mast cells [5]: ~0.631 nM | IC50, inhibition of 10 ng/mL human IL-33 induced TNF-α production, mouse bone marrow-derived mast cells [5]: ~0.581 nM | pIC50, inhibition of 10 ng/mL human IL-33 induced IL-6 production, mouse bone marrow-derived mast cells [5]: ~9.25 | pIC50, inhibition of 10 ng/mL human IL-33 induced IL-13 production, mouse bone marrow-derived mast cells [5]: ~9.25 | pIC50, inhibition of 10 ng/mL human IL-33 induced IL-18 production, mouse bone marrow-derived mast cells [5]: ~9.2 | pIC50, inhibition of 10 ng/mL human IL-33 induced TNF-α production, mouse bone marrow-derived mast cells [5]: ~9.24 | IC50, inhibition of 10 ng/mL IL-33/IL-12 induced IFN-γ secretion from whole blood, pre-complexed, Mean [6]: 1.95 nM | IC50, inhibition of 10 ng/mL IL-33/IL-12 induced IFN-γ secretion from whole blood, pre-complexed, donor #91232 [6]: 0.63 nM | IC50, inhibition of 10 ng/mL IL-33/IL-12 induced IFN-γ secretion from whole blood, pre-complexed, donor #91845 [6]: 2.72 nM | IC50, inhibition of 10 ng/mL IL-33/IL-12 induced IFN-γ secretion from whole blood, pre-complexed, donor #92023 [6]: 1.88 nM | IC50, inhibition of 10 ng/mL IL-33/IL-12 induced IFN-γ secretion from whole blood, pre-complexed, donor #92257 [6]: 0.81 nM | IC50, inhibition of 10 ng/mL IL-33/IL-12 induced IFN-γ secretion from whole blood, pre-complexed, donor #92258 [6]: 3.72 nM | pIC50, inhibition of 10 ng/mL IL-33/IL-12 induced IFN-γ secretion from whole blood, pre-complexed, Mean [6]: 8.8 | pIC50, inhibition of 10 ng/mL IL-33/IL-12 induced IFN-γ secretion from whole blood, pre-complexed, donor #91232 [6]: 9.19 | pIC50, inhibition of 10 ng/mL IL-33/IL-12 induced IFN-γ secretion from whole blood, pre-complexed, donor #91845 [6]: 8.56 | pIC50, inhibition of 10 ng/mL IL-33/IL-12 induced IFN-γ secretion from whole blood, pre-complexed, donor #92023 [6]: 8.72 | pIC50, inhibition of 10 ng/mL IL-33/IL-12 induced IFN-γ secretion from whole blood, pre-complexed, donor #92257 [6]: 9.08 | pIC50, inhibition of 10 ng/mL IL-33/IL-12 induced IFN-γ secretion from whole blood, pre-complexed, donor #92258 [6]: 8.42 | IC50, inhibition of IL-33 (500 pM) induced IL-6 secretion from HUVECs, pre-complexed, Mean [7]: 217 pM | IC50, inhibition of IL-33 (500 pM) induced IL-6 secretion from HUVECs, pre-complexed, P7 [7]: 214 pM | IC50, inhibition of IL-33 (500 pM) induced IL-6 secretion from HUVECs, pre-complexed, P8 [7]: 204 pM | IC50, inhibition of IL-33 (500 pM) induced IL-6 secretion from HUVECs, pre-complexed, P9 [7]: 234 pM | IC50, inhibition of IL-33 (500 pM) induced IL-8 secretion from HUVECs, pre-complexed, Mean [7]: 390 pM | IC50, inhibition of IL-33 (500 pM) induced IL-8 secretion from HUVECs, pre-complexed, P7 [7]: 489 pM | IC50, inhibition of IL-33 (500 pM) induced IL-8 secretion from HUVECs, pre-complexed, P8 [7]: 278 pM | IC50, inhibition of IL-33 (500 pM) induced IL-8 secretion from HUVECs, pre-complexed, P9 [7]: 402 pM | pIC50, inhibition of IL-33 (500 pM) induced IL-6 secretion from HUVECs, pre-complexed, Mean [7]: 9.66 | pIC50, inhibition of IL-33 (500 pM) induced IL-6 secretion from HUVECs, pre-complexed, P7 [7]: 9.67 | pIC50, inhibition of IL-33 (500 pM) induced IL-6 secretion from HUVECs, pre-complexed, P8 [7]: 9.69 | pIC50, inhibition of IL-33 (500 pM) induced IL-6 secretion from HUVECs, pre-complexed, P9 [7]: 9.63 | pIC50, inhibition of IL-33 (500 pM) induced IL-8 secretion from HUVECs, pre-complexed, Mean [7]: 9.42 | pIC50, inhibition of IL-33 (500 pM) induced IL-8 secretion from HUVECs, pre-complexed, P7 [7]: 9.31 | pIC50, inhibition of IL-33 (500 pM) induced IL-8 secretion from HUVECs, pre-complexed, P8 [7]: 9.56 | pIC50, inhibition of IL-33 (500 pM) induced IL-8 secretion from HUVECs, pre-complexed, P9 [7]: 9.4 | Kd [8]: 1100 nM | Kd [9]: 2110 nM | Kd [10]: 119 nM
B1: 22A06-458 (antibody, human IgG1, kappa)
heavy: QVQLVQSGAEVKKPGASVKVSCKASGYTFISYGMHWVRQAPGQGLEWMGEINPHGGSTSYAQKFKGRVTMTRDTSTSTVYMELSSLRSEDTAVYYCARPSAAYSHYLGIDLWGRGTLVTVSSASTKGPSVFPLAPSSKSTSGGTAALGCLVKDYFPEPVTVSWNSGALTSGVHTFPAVLQSSGLYSLSSVVTVPSSSLGTQTYICNVNHKPSNTKVDKKVEPKSCDKTHTCPPCPAPELLGGPSVFLFPPKPKDTLYITREPEVTCVVVDVSHEDPEVKFNWYVDGVEVHNAKTKPREEQYNSTYRVVSVLTVLHQDWLNGKEYKCKVSNKALPAPIEKTISKAKGQPREPQVYTLPPSRDELTKNQVSLTCLVKGFYPSDIAVEWESNGQPENNYKTTPPVLDSDGSFFLYSKLTVDKSRWQQGNVFSCSVMHEALHNHYTQKSLSLSPGK
light: DIQMTQSPSSVSASVGDRVTITCRASQGISSWLAWYQQKPGKAPKLLIYAASRLQSGVPSRFSGSGSGTDFTLTISSLQPEDFATYYCQQANVFPLTFGGGTKVEIKRTVAAPSVFIFPPSDEQLKSGTASVVCLLNNFYPREAKVQWKVDNALQSGNSQESVTEQDSKDSTYSLSSTLTLSKADYEKHKVYACEVTHQGLSSPVTKSFNRGEC

— patent US20260167710A1 (GlaxoSmithKline, published 2026)
